The values below come from patent publication US11932673B2, “Sodium channel inhibitors” (priority 2017, dated 2024).

The test system of assay [1] is trypsin. The experiment in a line: Phage TRF binding assay of KnotBody phage on immobilised biotinylated trypsin. The method, then:
Phage display technology facilitates isolation of binders to any given target from large combinatorial repertoires based on proteins and peptides that can be presented on the surface of filamentous phage^105. In order to isolate functional knottin-antibody fusions from the KnotBody libraries multiple rounds of phage display selections on trypsin (cognate antigen for the EETI-II donor) were carried out. Phage particles were prepared by rescuing KnotBody libraries using trypsin cleavable helper phage^102,106 Two rounds of phage display selections were performed on 10 μg/ml biotinylated trypsin immobilised on Streptavidin (for Round-1) or Neutravidin (for round-2) coated Maxisorp™ immunotubes (Thermo Scientific, Cat No. 444202). In both rounds of selection, phage libraries were pre-incubated with streptavidin coated paramagnetic beads (Thermo Fisher Scientific, Cat. No. 11205D). These beads were removed prior to the addition the phage to the antigen tubes to limit the streptavidin binders entering the selection. Polyclonal phage preparations from round-2 selection outputs were analysed for trypsin binding using a time resolved fluorescence (TRF) binding assay. In this assay, polyclonal phage binding to biotinylated trypsin immobilised on neutravidin (Thermo Fisher Scientific, Cat. No 31000) coated Maxisorp™ plates (Thermo Scientific, Cat. No. 437111) was detected using a mouse anti-M13 antibody (GE Healthcare, Cat. No. 27-9420-01) followed by europium conjugated anti-mouse antibody (Perkin Elmer, Cat. No. AD0124).
In order to identify monoclonal KnotBodies with desired binding characteristics, 94 individual clones derived from 2 rounds of selection using EETI-II CDR1 or CDR2 libraries were picked into 96 well culture plates and phage were prepared from each clone. Methods for screening by monoclonal phage ELISA are known in the art^107. […] Clones with >3× binding signal above background were picked as positive clones and sequenced to identify unique clones. 14 and 42 unique binders were identified from EETI-II CDR1 and EETI-II CDR2 libraries respectively (Table 1). 18 binders from the EETI-II CDR2 library and 3 binders from the EETI-II-CDR1 library were chosen for further characterisation based on their VL and linker sequence diversity. These binders were assigned new clone identification numbers (Table 2). […] In order to confirm that the loss of trypsin binding was not due to reduced expression or display of pIII fusion phage was prepared from 11 (randomly chosen) KnotBodies and their GlyAla variants were analysed on a western blot using an antibody which recognises the product of gene 3 (pIII) using an anti-pIII antibody (MoBiTec GmbH) (FIG. 6).

The subject of assay [2] is trypsin. Put plainly: TRF binding assay of purified KnotBody Fabs on biotinylated trypsin.
The next assay deals with T1, huASIC1a (Homo sapiens, UniProt P78348).
T1 sequence (P78348 whole entry, looked up): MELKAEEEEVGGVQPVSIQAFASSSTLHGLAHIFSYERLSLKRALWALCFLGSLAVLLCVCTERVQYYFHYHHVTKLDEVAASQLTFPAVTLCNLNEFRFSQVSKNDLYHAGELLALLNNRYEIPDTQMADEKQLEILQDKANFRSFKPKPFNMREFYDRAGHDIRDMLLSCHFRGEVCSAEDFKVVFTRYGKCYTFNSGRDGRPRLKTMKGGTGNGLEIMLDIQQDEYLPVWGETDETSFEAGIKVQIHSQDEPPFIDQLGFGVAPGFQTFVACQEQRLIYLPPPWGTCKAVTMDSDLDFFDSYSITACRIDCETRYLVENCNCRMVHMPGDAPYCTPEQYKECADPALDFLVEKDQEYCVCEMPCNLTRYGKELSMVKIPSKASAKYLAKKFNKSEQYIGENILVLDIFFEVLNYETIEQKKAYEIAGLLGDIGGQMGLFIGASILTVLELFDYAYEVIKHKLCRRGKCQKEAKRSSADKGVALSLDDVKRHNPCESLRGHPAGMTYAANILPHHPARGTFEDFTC
The experiment in a line: QPatch automated whole-cell patch-clamp on HEK293 cells stably expressing huASIC1a. The assay is classed as cell-based. The settings on record: pH 6.0 activation after 15-20 min pre-incubation; concentration μM: KB_A07_PcTx1 6.6, KB_A12_PcTx1 5, KB_A12_Mba-1 3, KB_A12_Mba-2 2.3, KB_A07 6, KB_A12 3.3. How it is done:
Knottin Kv 1.3 and ASIC1a blockers expressed in the KnotBody format (see examples 6 and 7) were tested for their ability to inhibit the function of the ion channel targets. The effect of these KnotBodies on cells expressing the human Kv 1.3 (huKv1.3) or human ASIC1a channels was assessed using QPatch automated whole-cell patch-clamp electrophysiology (Sophion).
To functionally assess the ASIC1a KnotBodies, HEK293 cells stably expressing huASIC1a (Sophion) were analysed using a QPatch electrophysiology assay in the presence or absence of the KnotBody fusions (using KB_A12 as a recipient and replacing the original EETI-II donor as shown in Table 8). The “parental” KB_A12 with the EETI-II donor was used as a negative control. Internal and external physiological solutions were freshly prepared prior to the assay. […]
At the end of each KnotBody incubation and subsequent ASIC1a current activation, a full blocking concentration (300 nM) of the ASIC1a knottin inhibitor PcTx1 (positive control) was perfused onto the cell recording and a final activating pH 6.0 external solution was applied. The percentage remaining signal between activating pH 6.0 baseline (i.e. pre-KnotBody) and post-KnotBody incubation was determined.

The next assay has as its target LOX-1 (Homo sapiens, UniProt P78380). The experiment in a line: Phage TRF binding assay of adhiron-antibody fusions on LOX-1. Particulars: monoclonal phage; LOX-1 directly immobilised; non-specific binding checked on cMET-FC, GAS6-CD4, FGFR4-CD4, UPA, B-gal. The method, then: In order to test the functionality of these adhiron-antibody fusions, monoclonal phage prepared from each clone was assessed for binding to LOX-1 in a TRF binding assay. In this assay, LOX-1 (immobilised directly on Maxisorp™ plates) binding of phage displaying adhiron-antibody fusion was detected using a mouse anti-M13 antibody (GE Healthcare) followed by europium conjugated anti-mouse antibody (Perkin Elmer). Parent KnotBodies KB_A07 and KB_A12 (EETI-II fusions) were included as controls. Proteins cMET-FC, GAS6-CD4, FGFR4-CD4, UPA and B-gal were used to examine non-specific binding.

Another assay has as its target human Nav1.7 (Homo sapiens, UniProt Q15858). Put plainly: QPatch patch-clamp on CHO cells stably expressing human Nav1.7, single application (Example 19). It counts as cell-based. The method, then:
The effect of these KnotBodies on cells expressing human Nav1.7 (huNav1.7) channel was assessed using QPatch automated patch-clamp platform (Sophion). For the testing of Nav1.7 ion channel currents, CHO cells stably expressing human Nav1.7 (GenBank accession number NM 002977; cell line catalogue number CT6003, Charles River Discovery, Cleveland, USA) were subjected to the QPatch electrophysiology assay in the presence or absence of the KnotBody fusions or the antibody isotypes (negative controls). Internal and external physiological solutions were freshly prepared prior to the assay. The extracellular solution contained 145 mM NaCl, 4 mM KCl, 2 mM CaCl2, 1 mM MgCl2, 10 mM HEPES and 10 mM glucose; the pH was adjusted to 7.4 with NaOH; the osmolarity was ˜305 mOsm/L. The intracellular solution contained: KF (120 mM), KCl (20 mM), HEPES (10 mM) EGTA (10 mM); the pH was adjusted to 7.2 with KOH; osmolarity was ˜300 mOsm/L.
A series of depolarising voltage (channel activating) pulses were used to monitor the channel currents upon adding control (extracellular solution) to define a control baseline of current activity. To these measured control channel currents KnotBody or parental antibody isotypes (control molecules) were applied to the external bathing solution. The parental KnotBody KB_A12 (with trypsin inhibitor knottin EETI-II at CDR2) were used as test molecule isotype controls for the testing. […] The elicited, maximum outward current values measured during the −10 mV activating step for each solution period (a control, baseline level of current was determined at 10 minutes after application of the control external recording solution and a test level of current was determined after 20 minutes of application of KnotBody or its isotype) and average inhibition was determined between the current from the 10 minute baseline control current and the subsequent 20 minute KnotBody application. […] The average inhibition values (with external control reduction subtracted) for KnotBodies and isotypes was calculated.
(In patch-clamp work, channel activity is measured electrically.)

Positions count from the first letter of the chain named.

Sequence of human Nav1.7 (Q15858 other isoform, or with tags, fused parts or gaps): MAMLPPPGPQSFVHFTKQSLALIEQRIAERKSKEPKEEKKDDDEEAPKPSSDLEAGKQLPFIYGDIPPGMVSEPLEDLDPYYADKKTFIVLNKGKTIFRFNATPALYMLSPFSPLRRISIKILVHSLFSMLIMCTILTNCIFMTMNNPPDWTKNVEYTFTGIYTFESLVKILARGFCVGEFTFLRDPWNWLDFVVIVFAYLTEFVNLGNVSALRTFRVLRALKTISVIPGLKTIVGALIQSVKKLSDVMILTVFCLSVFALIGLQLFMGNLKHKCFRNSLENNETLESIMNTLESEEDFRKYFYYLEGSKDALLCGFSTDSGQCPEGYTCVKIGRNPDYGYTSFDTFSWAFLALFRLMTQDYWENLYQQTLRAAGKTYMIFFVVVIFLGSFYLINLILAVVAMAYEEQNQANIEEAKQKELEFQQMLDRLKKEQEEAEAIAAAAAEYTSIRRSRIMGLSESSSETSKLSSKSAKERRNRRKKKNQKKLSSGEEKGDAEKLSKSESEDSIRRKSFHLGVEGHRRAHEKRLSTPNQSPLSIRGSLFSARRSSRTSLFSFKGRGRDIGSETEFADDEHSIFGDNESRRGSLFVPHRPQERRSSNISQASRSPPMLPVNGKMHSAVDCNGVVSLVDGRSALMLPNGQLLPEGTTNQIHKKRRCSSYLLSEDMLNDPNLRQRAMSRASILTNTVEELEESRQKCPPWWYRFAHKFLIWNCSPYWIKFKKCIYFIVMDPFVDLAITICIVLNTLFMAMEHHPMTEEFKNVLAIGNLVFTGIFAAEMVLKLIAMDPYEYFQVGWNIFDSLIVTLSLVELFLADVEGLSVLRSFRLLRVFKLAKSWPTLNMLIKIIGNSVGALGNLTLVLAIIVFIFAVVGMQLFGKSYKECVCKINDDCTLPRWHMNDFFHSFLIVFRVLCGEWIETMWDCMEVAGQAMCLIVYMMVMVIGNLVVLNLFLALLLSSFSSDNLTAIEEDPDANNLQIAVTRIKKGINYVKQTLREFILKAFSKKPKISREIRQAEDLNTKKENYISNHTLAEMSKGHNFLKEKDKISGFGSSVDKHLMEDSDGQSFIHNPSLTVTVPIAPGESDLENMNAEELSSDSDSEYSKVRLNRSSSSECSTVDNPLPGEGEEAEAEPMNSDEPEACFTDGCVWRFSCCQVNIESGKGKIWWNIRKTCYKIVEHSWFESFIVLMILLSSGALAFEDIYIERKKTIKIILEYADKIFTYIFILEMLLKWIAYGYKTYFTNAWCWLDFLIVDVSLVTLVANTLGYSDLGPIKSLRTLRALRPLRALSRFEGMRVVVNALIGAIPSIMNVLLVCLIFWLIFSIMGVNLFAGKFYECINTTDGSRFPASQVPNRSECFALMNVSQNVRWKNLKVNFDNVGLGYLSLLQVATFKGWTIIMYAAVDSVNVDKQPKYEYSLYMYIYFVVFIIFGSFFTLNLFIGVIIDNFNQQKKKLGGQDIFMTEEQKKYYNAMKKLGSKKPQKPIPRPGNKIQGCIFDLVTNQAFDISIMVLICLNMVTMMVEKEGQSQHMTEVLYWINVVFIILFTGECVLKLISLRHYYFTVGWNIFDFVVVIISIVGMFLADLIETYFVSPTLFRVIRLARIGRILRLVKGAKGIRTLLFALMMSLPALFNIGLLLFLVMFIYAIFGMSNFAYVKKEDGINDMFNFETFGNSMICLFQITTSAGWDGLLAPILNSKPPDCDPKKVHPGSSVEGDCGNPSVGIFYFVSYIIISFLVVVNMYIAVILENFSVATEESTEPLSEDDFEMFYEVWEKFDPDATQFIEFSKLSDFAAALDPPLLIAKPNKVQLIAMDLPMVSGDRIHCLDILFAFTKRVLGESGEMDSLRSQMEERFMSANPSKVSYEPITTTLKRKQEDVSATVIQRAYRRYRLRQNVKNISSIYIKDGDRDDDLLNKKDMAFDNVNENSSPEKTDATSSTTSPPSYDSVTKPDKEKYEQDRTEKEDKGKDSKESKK

B1: KB_A07: EETI-II VL CDR2 KnotBody, D1A12 VH, VL SEQ ID NO: 136/372; parental/isotype control (antibody, V domains shown)
VH: EVQLVESGGGLVRPGGSLRLSCAASGFTFSSYAMSWVRQAPGKGLEWVSAISGSGGSTYYADSVKGRFTISRDNTKNSLYLQMTSLRADDTAFYYCVKDFGPGYGTGWFDYWGPGTLVTVSS
VL: DIQMTQSPSSLSASVGDRVTITCRASQSISSYLNWYQQKPGKAPKLLIYAAGVCPRILMRCKQDSDCLAGCVCGPNGFCGSRSGVPSRFSGSGSGTDFTLTISSLQPEDFATYYCQQGASPPYTFGQGTKVEIKR
Consider B1, for which the “% reduction in binding signal” value in the assay on trypsin [1] ([…], monoclonal phage, streptavidin coated plates) is 98%. For the same molecule, the “Tryspin binding signal (FU)” value in the assay on trypsin [1] (monoclonal phage supernatant, biotinylated trypsin on neutravidin coated plates, TRF) stood at 21448 FU. Also, the “TRF signal for 0.6 ug/mL Fab” value in the assay with trypsin [2] (KnotBody Fab 0.6 ug/mL, background (no Fab) 431) was 107814. For the same molecule, the “TRF signal for 2.4 ug/mL Fab” value in the assay with trypsin [2] (KnotBody Fab 2.4 ug/mL, background (no Fab) 406) was determined as 201003. The “TRF signal for 10 ug/mL Fab” value in the assay on trypsin [2] (KnotBody Fab 10 ug/mL, background (no Fab) 420) is 226082. For the same molecule, the “% current remaining” value in the assay with huASIC1a is listed as 70.9%. The “binding to LOX-1” value in the assay with LOX-1 was “no detectable binding to the LOX-1”.

B2: KB_A12_ProTx-III Gly (antibody, V domains shown)
VH: B1 VH
VL: QSVLTQPPSVSEAPRQRVTITCSGSSSNIGNNAVNWYQQLPGKAPKLLIYAAGRDCLKFGWKCNPRNDKCCSGLKCGSNHNWCKLHIGANSGVSDRFSAAKSGTSASLAINGLRSEDEADYYCAAWDDSLNGYVFGTGTKLTVLG
In the case of B2, the “Mean % inhibition of Nav1.7 currents” value with human Nav1.7 (concentration tested 22.3 μM) turned out to be 26.6%.

B3: KB_A12_ProTx-III 2M Gly: ProTx-III 2M Gly in VL CDR2 of KB_A12, IgG; Nav1.7 KnotBody (antibody, V domains shown)
VH: B1 VH
VL: B2 VL with D55G, L85W
As to B3, the “Mean % inhibition of Nav1.7 currents” value with human Nav1.7 (concentration tested 15.4 μM) is 63.5%.
